From publication doi:10.1101/2022.11.09.515846 (bioRxiv, 2022) come the findings set out here.

For this test, the target named is T1, human Ndc80 loop segment (residues 370–509) with a cysteine added at each end (human, UniProt O14777 370-509).
T1 chain: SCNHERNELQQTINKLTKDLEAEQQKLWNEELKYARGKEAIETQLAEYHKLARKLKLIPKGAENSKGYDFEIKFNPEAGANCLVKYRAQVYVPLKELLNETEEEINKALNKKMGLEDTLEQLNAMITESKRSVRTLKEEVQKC
The test can be described thus: crystal structure.

B1: human Nuf2 segment (residues 252–347) with a cysteine added at each end (domain or fragment)
chain: CKNYKEKMKDTVQKLKNARQEVVEKYEIYGDSVDCLPSCQLEVQLYQKKIQDLSDNREKLASILKESLNLEDQIESDESELKKLKTEENSFKRLMIVC
In the case of B1, the binding result was “binds”.
